Assay results: patent US20160208233A1 (Harvard, published 2016)
Where a chain is given by its changes, count along the chain named. “And” between values parts separate entries of the source, which are not always exact repeats. Equal entries are not always repeated. Non-standard residues stand in square brackets, D forms with d. No end group written: not given here. *: point of attachment. Dnp = O=[N+]([O-])c1ccc(*)c([N+](=O)[O-])c1; 2Abz = Nc1ccccc1C(=O)O

Experiments:
[1] = molecular target: T1, eSrtA displayed on ICY200 yeast as a C-terminal Aga2p fusion (Staphylococcus aureus, UniProt Q2FV99 60-206); assay: yeast-displayed eSrtA, 10 µM Btn-LAETGG against 100 nM to 1 mM LPETGG, cell biotinylation by flow cytometry
T1 construct: the whole entry is named here; also called Yeast displaying eSrtA; S. cerevisiae displaying eSrtA; not shown: Aga2p, yeast display anchor
T1 chain: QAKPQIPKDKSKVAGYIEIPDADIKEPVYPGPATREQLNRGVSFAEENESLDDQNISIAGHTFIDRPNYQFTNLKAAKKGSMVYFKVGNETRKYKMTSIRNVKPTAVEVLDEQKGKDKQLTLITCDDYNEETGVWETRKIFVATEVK

Abz-LPETGK(Dnp)-CONH2 = molecular target: T2, Abz-LPETGK(Dnp)-CONH2
T2 chain: LPETGK

Abz-LAETGK(Dnp)-CONH2 [2] = molecular target: T3, Abz-LAETGK(Dnp)-CONH2
T3 chain: LAETGK

Abz-LAETGK(Dnp)-CONH2 [3] = molecular target: T4, Abz-LAETGK(Dnp)-CONH2 (N-terminus assumed; SMILES CC(C)C[C@H](NC(=O)c1ccccc1N)C(=O)N[C@@H](C)C(=O)N[C@@H](CCC(=O)O)C(=O)N[C@H](C(=O)NCC(=O)N[C@@H](CCCCNc1ccc([N+](=O)[O-])cc1[N+](=O)[O-])C(N)=O)[C@@H](C)O); assay: cell-based or functional assay
T4 peptide: [2Abz]LAETGK(Dnp)-NH2

Abz-LPEAGK(Dnp)-CONH2 = molecular target: T5, Abz-LPEAGK(Dnp)-CONH2
T5 chain: LPEAGK

Abz-LPECGK(Dnp)-CONH2 = molecular target: T6, Abz-LPECGK(Dnp)-CONH2
T6 chain: LPECGK

Gly-Gly-Gly-COOH = molecular target: T7, Gly-Gly-Gly-COOH
T7 chain: GGG

Abz-LPESGK(Dnp)-CONH2 [4] = molecular target: T8, Abz-LPESGK(Dnp)-CONH2
T8 chain: LPESGK

Abz-LSETGK(Dnp)-CONH2 = molecular target: T9, Abz-LSETGK(Dnp)-CONH2
T9 chain: LSETGK

[5] = molecular target: T10, human fetuin A, endogenous in human plasma, P02765
T10 chain: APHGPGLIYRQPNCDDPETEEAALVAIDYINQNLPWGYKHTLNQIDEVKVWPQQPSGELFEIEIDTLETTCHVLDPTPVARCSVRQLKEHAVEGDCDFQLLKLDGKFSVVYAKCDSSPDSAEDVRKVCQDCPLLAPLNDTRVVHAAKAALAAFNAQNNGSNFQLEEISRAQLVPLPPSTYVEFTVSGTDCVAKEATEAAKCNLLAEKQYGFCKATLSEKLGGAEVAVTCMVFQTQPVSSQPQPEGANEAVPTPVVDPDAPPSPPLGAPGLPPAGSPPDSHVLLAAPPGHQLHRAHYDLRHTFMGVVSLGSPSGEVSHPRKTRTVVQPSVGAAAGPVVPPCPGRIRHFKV

Abz-LPESGK(Dnp)-CONH2 [6] = molecular target: T11, Abz-LPESGK(Dnp)-CONH2 (N-terminus assumed; SMILES CC(C)C[C@H](NC(=O)c1ccccc1N)C(=O)N1CCC[C@H]1C(=O)N[C@@H](CCC(=O)O)C(=O)N[C@@H](CO)C(=O)NCC(=O)N[C@@H](CCCCNc1ccc([N+](=O)[O-])cc1[N+](=O)[O-])C(N)=O); assay: cell-based or functional assay
T11 peptide: [2Abz]LPESGK(Dnp)-NH2

Alexa Fluor 488-LAETGG = molecular target: T12, Alexa Fluor 488-LAETGG
T12 chain: KLAETGG

Alexa Fluor 647-LPESGG = molecular target: T13, Alexa Fluor 647-LPESGG
T13 chain: KLPESGG

Binder: LPETGG [non-biotinylated LPETGG peptide]
- Ki [1]: < 100 µM

B1: eSrtA(2A-3.5) (enzyme)
chain: T1 chain with K103R, V109I, I123F
- Avg KM (Abz-LPETGK(Dnp)-CONH2): 3750 µM
- Avg kcat/KM (Abz-LPETGK(Dnp)-CONH2): 406
- Km, LxExG (Abz-LPETGK(Dnp)-CONH2): 4110 µM
- Specificity (relative catalytic efficiency, fold), LPETG over LAETG (Abz-LPETGK(Dnp)-CONH2): 2.25 fold
- kcat/Km (Hz/M) (Abz-LPETGK(Dnp)-CONH2): 386 Hz/M
- Avg KM (Abz-LAETGK(Dnp)-CONH2 [2]): 6370 µM
- Avg kcat/KM (Abz-LAETGK(Dnp)-CONH2 [2]): 180
- Km, LxExG (Abz-LAETGK(Dnp)-CONH2 [2]): 7160 µM
- kcat/Km (Hz/M) (Abz-LAETGK(Dnp)-CONH2 [2]): 175 Hz/M
- specificity (relative cat. Efficiency, fold), by the kcat/Km cells LPETG over LAETG (Abz-LAETGK(Dnp)-CONH2 [3]): 2.21 fold

B2: evolved sortase A (eSrtA) (enzyme)
chain: T1 chain
- Km (Abz-LPEAGK(Dnp)-CONH2): 83.4 µM
- kcat/Km (Abz-LPEAGK(Dnp)-CONH2): 8900 M⁻¹ s⁻¹
- Km (Abz-LPECGK(Dnp)-CONH2): 72.5 µM
- kcat/Km (Abz-LPECGK(Dnp)-CONH2): 48800 M⁻¹ s⁻¹
- Km, GGG (uM); with LPETG peptide (Gly-Gly-Gly-COOH): 2990 µM
- Km,GGG (µM); listed substrate LAETG (Gly-Gly-Gly-COOH): 807 µM
- Km,GGG (µM); listed substrate LPEAG (Gly-Gly-Gly-COOH): 48400 µM
- Km,GGG (µM); listed substrate LPECG (Gly-Gly-Gly-COOH): 57000 µM
- Km,GGG (µM); listed substrate LPESG (Gly-Gly-Gly-COOH): 22000 µM
- Km,GGG (µM); listed substrate LPETG (Gly-Gly-Gly-COOH): 1620 µM
- Km,GGG (µM); listed substrate LSETG (Gly-Gly-Gly-COOH): 337 µM
- Km (Abz-LPETGK(Dnp)-CONH2): 230 µM
- Km, LxExG (Abz-LPETGK(Dnp)-CONH2): 208 µM
- kcat/Km (Abz-LPETGK(Dnp)-CONH2): 23000 M⁻¹ s⁻¹
- kcat/Km (Hz/M) (Abz-LPETGK(Dnp)-CONH2): 27100 Hz/M
- specificity (relative cat. Efficiency, fold), LPETG over LAETG (Abz-LPETGK(Dnp)-CONH2): 123 fold
- Km (Abz-LAETGK(Dnp)-CONH2 [2]): 6070 µM
- Km, LxExG (Abz-LAETGK(Dnp)-CONH2 [2]): 6160 µM
- Rel. Activity (fold below the enzyme's best substrate, LPETG) (Abz-LAETGK(Dnp)-CONH2 [2]): 103 fold
- kcat/Km (Abz-LAETGK(Dnp)-CONH2 [2]): 223 M⁻¹ s⁻¹
- kcat/Km (Hz/M) (Abz-LAETGK(Dnp)-CONH2 [2]): 221 Hz/M
- Km (Abz-LPESGK(Dnp)-CONH2 [4]): 318 µM
- Km, LxExG (Abz-LPESGK(Dnp)-CONH2 [4]): 672 µM
- Rel. Activity (fold below the enzyme's best substrate, LPETG) (Abz-LPESGK(Dnp)-CONH2 [4]): 4.9 fold
- kcat/Km (Abz-LPESGK(Dnp)-CONH2 [4]): 4650 M⁻¹ s⁻¹
- kcat/Km (Hz/M) (Abz-LPESGK(Dnp)-CONH2 [4]): 2650 Hz/M
- Km (Abz-LSETGK(Dnp)-CONH2): 533 µM
- kcat/Km (Abz-LSETGK(Dnp)-CONH2): 192 M⁻¹ s⁻¹
- conjugation efficiency in human plasma, with supplemental calcium (densitometry) [5]: 0.6% by eSrtA in the presence supplemental calcium
- fetuin A conjugation efficiency with 10 mM added CaCl2, against eSrtA(4S-9) [5]: only modest fetuin A conjugation efficiencies (90-fold lower than that of eSrtA(4S-9)) in the presence of 10 mM added CaCl2
- processing of fetuin A in human plasma without supplemental calcium [5]: eSrtA showed no processing of fetuin A without supplemental calcium
- specificity (relative cat. Efficiency, fold), by the kcat/Km cells LPETG over LPESG (Abz-LPESGK(Dnp)-CONH2 [6]): 10.2 fold

B3: eSrtA(4S-9) (protein)
chain: T1 chain with N39D, S43C, A45V, A59T, F63A, K75R, F85L, I123V, E130F
- Km (Abz-LPEAGK(Dnp)-CONH2): 154 µM
- kcat/Km (Abz-LPEAGK(Dnp)-CONH2): 12300 M⁻¹ s⁻¹
- conjugation of fluorophore-peptide to GGG-diblock (gel fluorescence), non-cognate pair (Alexa Fluor 488-LAETGG): no detectable off-target substrate conjugation
- modification of GGG-PEG-functionalized 96-well plates (fluorescence), non-cognate pair: no significant modification (Alexa Fluor 488-LAETGG): Each enzyme exhibited significant modification only on its cognate substrate
- Km (Abz-LPECGK(Dnp)-CONH2): 69 µM
- kcat/Km (Abz-LPECGK(Dnp)-CONH2): 74000 M⁻¹ s⁻¹
- conjugation of fluorophore-peptide to GGG-diblock (gel fluorescence), cognate pair (Alexa Fluor 647-LPESGG): Significant peptide-diblock conjugation was observed only for cognate pairs of enzyme and substrate, with no detectable off-target substrate conjugation
- modification of GGG-PEG-functionalized 96-well plates (fluorescence), cognate pair (Alexa Fluor 647-LPESGG): Each enzyme exhibited significant modification only on its cognate substrate
- Avg KM (uM) for GGG; with LPESG (4S) peptide (Gly-Gly-Gly-COOH): 69500 µM
- Avg KM (uM) for GGG; with LPETG (wt) peptide (Gly-Gly-Gly-COOH): 97600 µM
- Avg kcat/KM for GGG; with LPESG (4S) peptide (Gly-Gly-Gly-COOH): 46.1
- Avg kcat/KM for GGG; with LPETG (wt) peptide (Gly-Gly-Gly-COOH): 0.587
- Km,GGG (µM); listed substrate LPEAG (Gly-Gly-Gly-COOH): 41000 µM
- Km,GGG (µM); listed substrate LPECG (Gly-Gly-Gly-COOH): 55000 µM
- Km,GGG (µM); listed substrate LPESG (Gly-Gly-Gly-COOH): 69000 µM
- Km,GGG (µM); listed substrate LPETG (Gly-Gly-Gly-COOH): 98000 µM
- Avg KM (Abz-LPETGK(Dnp)-CONH2): 66.1 µM
- Avg kcat/KM (Abz-LPETGK(Dnp)-CONH2): 706
- Km (Abz-LPETGK(Dnp)-CONH2): 64.7 µM
- Rel. Activity (fold below the enzyme's best substrate, LPESG) (Abz-LPETGK(Dnp)-CONH2): 25 fold
- kcat/Km (Abz-LPETGK(Dnp)-CONH2): 720 M⁻¹ s⁻¹
- Km (Abz-LAETGK(Dnp)-CONH2 [2]): 387 µM
- Rel. Activity (fold below the enzyme's best substrate, LPESG) (Abz-LAETGK(Dnp)-CONH2 [2]): 898 fold
- kcat/Km (Abz-LAETGK(Dnp)-CONH2 [2]): 20.2 M⁻¹ s⁻¹
- Avg KM (Abz-LPESGK(Dnp)-CONH2 [4]): 123 µM
- Avg kcat/KM (Abz-LPESGK(Dnp)-CONH2 [4]): 17600
- Km (Abz-LPESGK(Dnp)-CONH2 [4]): 113 µM
- Specificity, LPESG over LPETG (Abz-LPESGK(Dnp)-CONH2 [4]): 25 fold
- difference in transpeptidation of LPESG over LPETG (Abz-LPESGK(Dnp)-CONH2 [4]): an approximately 40-fold difference in transpeptidation of LPESG (SEQ ID NO: 3) over LPETG (SEQ ID NO: 4) by eSrtA(4S-9)
- kcat/Km (Abz-LPESGK(Dnp)-CONH2 [4]): 18200 M⁻¹ s⁻¹ and 18000 M⁻¹ s⁻¹
- conjugation efficiency in human plasma, with supplemental calcium (densitometry) [5]: 1.8% or 57.6% by eSrtA(4S-9) in the absence or presence of supplemental calcium, respectively
- conjugation efficiency in human plasma, without supplemental calcium (densitometry) [5]: 1.8% or 57.6% by eSrtA(4S-9) in the absence or presence of supplemental calcium, respectively
- labeling of human plasma proteins with Gly-Gly-Gly-Lys(Biotin) [5]: identified a single transpeptidation product (FIG. 21C-D), identified by mass spectrometry and confirmed by Western blot as fetuin A
